In article PMC139973:

Key:
[1] = p24 ELISA of virus replication over 12 days; details: glycan lost; control: CXCR4 wt cells
[2] = flow cytometry, PE-labelled mAb 12G5, cell surface; details: glycan lost; control: CXCR4 wt (CXCR4+g1g2)

Protein | other: cell permissiveness for HIV-1 (coreceptor function) [1] | expression_or_secretion, percent_of_wt [2]
CXCR4: N11Q/N176Q (protein) parent chain: MEGISIYTSDNYTEEMGSGDYDSMKEPCFREENANFNKIFLPTIYSIIFLTGIVGNGLVILVMGYQKKLRSMTDKYRLHLSVADLLFVITLPFWAVDAVANWYFGNFLCKAVHVIYTVNLYSSVLILAFISLDRYLAIVHATNSQRPRKLLAEKVVYVGVWIPALLLTIPDFIFANVSEADDRYICDRFYPNDLWVVVFQFQHIMVGLILPGIVILSCYCIIISKLSHSKGHQKRKALKTTVILILAFFACWLPYYIGISIDSFILLEIIKQGCEFENTVHKWISITEALAFFHCCLNPILYAFLGAKFKTSAQHALTSVSRGSSLKILSKGKRGGHSSVSTESESSSFHSS | no change | 
CXCR4: N11Q (protein) parent chain: MEGISIYTSDNYTEEMGSGDYDSMKEPCFREENANFNKIFLPTIYSIIFLTGIVGNGLVILVMGYQKKLRSMTDKYRLHLSVADLLFVITLPFWAVDAVANWYFGNFLCKAVHVIYTVNLYSSVLILAFISLDRYLAIVHATNSQRPRKLLAEKVVYVGVWIPALLLTIPDFIFANVSEADDRYICDRFYPNDLWVVVFQFQHIMVGLILPGIVILSCYCIIISKLSHSKGHQKRKALKTTVILILAFFACWLPYYIGISIDSFILLEIIKQGCEFENTVHKWISITEALAFFHCCLNPILYAFLGAKFKTSAQHALTSVSRGSSLKILSKGKRGGHSSVSTESESSSFHSS | no change | 
CXCR4: T13A (protein) parent chain: MEGISIYTSDNYTEEMGSGDYDSMKEPCFREENANFNKIFLPTIYSIIFLTGIVGNGLVILVMGYQKKLRSMTDKYRLHLSVADLLFVITLPFWAVDAVANWYFGNFLCKAVHVIYTVNLYSSVLILAFISLDRYLAIVHATNSQRPRKLLAEKVVYVGVWIPALLLTIPDFIFANVSEADDRYICDRFYPNDLWVVVFQFQHIMVGLILPGIVILSCYCIIISKLSHSKGHQKRKALKTTVILILAFFACWLPYYIGISIDSFILLEIIKQGCEFENTVHKWISITEALAFFHCCLNPILYAFLGAKFKTSAQHALTSVSRGSSLKILSKGKRGGHSSVSTESESSSFHSS | no change | 
CXCR4: N176Q (protein) parent chain: MEGISIYTSDNYTEEMGSGDYDSMKEPCFREENANFNKIFLPTIYSIIFLTGIVGNGLVILVMGYQKKLRSMTDKYRLHLSVADLLFVITLPFWAVDAVANWYFGNFLCKAVHVIYTVNLYSSVLILAFISLDRYLAIVHATNSQRPRKLLAEKVVYVGVWIPALLLTIPDFIFANVSEADDRYICDRFYPNDLWVVVFQFQHIMVGLILPGIVILSCYCIIISKLSHSKGHQKRKALKTTVILILAFFACWLPYYIGISIDSFILLEIIKQGCEFENTVHKWISITEALAFFHCCLNPILYAFLGAKFKTSAQHALTSVSRGSSLKILSKGKRGGHSSVSTESESSSFHSS | no change | no change
CXCR4: S178A (protein) parent chain: MEGISIYTSDNYTEEMGSGDYDSMKEPCFREENANFNKIFLPTIYSIIFLTGIVGNGLVILVMGYQKKLRSMTDKYRLHLSVADLLFVITLPFWAVDAVANWYFGNFLCKAVHVIYTVNLYSSVLILAFISLDRYLAIVHATNSQRPRKLLAEKVVYVGVWIPALLLTIPDFIFANVSEADDRYICDRFYPNDLWVVVFQFQHIMVGLILPGIVILSCYCIIISKLSHSKGHQKRKALKTTVILILAFFACWLPYYIGISIDSFILLEIIKQGCEFENTVHKWISITEALAFFHCCLNPILYAFLGAKFKTSAQHALTSVSRGSSLKILSKGKRGGHSSVSTESESSSFHSS | no change | no change
